# From patent US20240287154A1, “MC3R AGONIST PEPTIDES” (The Regents of the University of Michigan, priority 2021, published 2024)
# Non-standard residues stand in square brackets, D forms with d. Phe(4-I) = N[C@@H](Cc1ccc(I)cc1)C(=O)O; Nle = CCCC[C@H](N)C(=O)O; Aib = CC(C)(N)C(=O)O
# Molecular target: human MC3R (human, UniProt P41968 1-323)
# Assay: cell-based or functional assay
# Sequence of human MC3R (P41968 whole entry): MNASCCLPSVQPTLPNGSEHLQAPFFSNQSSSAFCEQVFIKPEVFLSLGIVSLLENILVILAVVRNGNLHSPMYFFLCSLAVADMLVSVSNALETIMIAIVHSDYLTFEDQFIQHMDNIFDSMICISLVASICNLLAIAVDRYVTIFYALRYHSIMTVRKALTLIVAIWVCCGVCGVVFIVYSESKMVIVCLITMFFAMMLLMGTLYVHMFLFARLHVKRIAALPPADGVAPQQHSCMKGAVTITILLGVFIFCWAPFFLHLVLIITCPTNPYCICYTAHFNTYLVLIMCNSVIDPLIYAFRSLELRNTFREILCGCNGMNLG
Binder,MC3R cAMP (EC50) [nM],MC3R selectivity (relative to MC4R)
YVXXHFRWDRFG (Nle at 3; Aib at 4; D-Trp at 8) [CTX-1134],2.5,566
Ac-[Nle][Aib]H[Phe(4-I)]R[dW]G-NH2 (SMILES CCCC[C@H](NC(C)=O)C(=O)NC(C)(C)C(=O)N[C@@H](Cc1c[nH]cn1)C(=O)N[C@@H](Cc1ccc(I)cc1)C(=O)N[C@@H](CCCNC(=N)N)C(=O)N[C@H](Cc1c[nH]c2ccccc12)C(=O)NCC(N)=O) [CTX-1545],51.6,14
H-VMGHFR[dW]DRFG-OH [CTX-1546],1.7,51
Ac-[Nle][dA]H[Phe(4-I)]R[dW]G-NH2 (SMILES CCCC[C@H](NC(C)=O)C(=O)N[C@H](C)C(=O)N[C@@H](Cc1c[nH]cn1)C(=O)N[C@@H](Cc1ccc(I)cc1)C(=O)N[C@@H](CCCNC(=N)N)C(=O)N[C@H](Cc1c[nH]c2ccccc12)C(=O)NCC(N)=O) [CTX-1543],3.1,202
H-YV[Nle][dF]HFR[dW]D-NH2 (SMILES CCCC[C@H](NC(=O)[C@@H](NC(=O)[C@@H](N)Cc1ccc(O)cc1)C(C)C)C(=O)N[C@H](Cc1ccccc1)C(=O)N[C@@H](Cc1c[nH]cn1)C(=O)N[C@@H](Cc1ccccc1)C(=O)N[C@@H](CCCNC(=N)N)C(=O)N[C@H](Cc1c[nH]c2ccccc12)C(=O)N[C@@H](CC(=O)O)C(N)=O) [CTX-1132],3.9,6.8
YVXGRFRWDRFG (Nle at 3; D-Trp at 8) [CTX-1549],2.4,102
H-YVMGRFR[dW]DRFG-OH (SMILES CSCC[C@H](NC(=O)[C@@H](NC(=O)[C@@H](N)Cc1ccc(O)cc1)C(C)C)C(=O)NCC(=O)N[C@@H](CCCNC(=N)N)C(=O)N[C@@H](Cc1ccccc1)C(=O)N[C@@H](CCCNC(=N)N)C(=O)N[C@H](Cc1c[nH]c2ccccc12)C(=O)N[C@@H](CC(=O)O)C(=O)N[C@@H](CCCNC(=N)N)C(=O)N[C@@H](Cc1ccccc1)C(=O)NCC(=O)O) [CTX-1548],3.8,267
Ac-[Nle][dA]HFR[dW][dF]-NH2 (SMILES CCCC[C@H](NC(C)=O)C(=O)N[C@H](C)C(=O)N[C@@H](Cc1c[nH]cn1)C(=O)N[C@@H](Cc1ccccc1)C(=O)N[C@@H](CCCNC(=N)N)C(=O)N[C@H](Cc1c[nH]c2ccccc12)C(=O)N[C@H](Cc1ccccc1)C(N)=O) [CTX-1542],64.6,15
H-MGHFR[dW]DRFG-OH (SMILES CSCC[C@H](N)C(=O)NCC(=O)N[C@@H](Cc1c[nH]cn1)C(=O)N[C@@H](Cc1ccccc1)C(=O)N[C@@H](CCCNC(=N)N)C(=O)N[C@H](Cc1c[nH]c2ccccc12)C(=O)N[C@@H](CC(=O)O)C(=O)N[C@@H](CCCNC(=N)N)C(=O)N[C@@H](Cc1ccccc1)C(=O)NCC(=O)O) [CTX-1547],1.5,54
